This note sets out measurements from US20030049796A1.

The assay deals with Recombinant active caspase-9 (catalytic domain) (mammalian) (UniProt P55211). In words: cell-based or functional assay.
UniProt P55211, sequence (P55211 139-416 limits assumed): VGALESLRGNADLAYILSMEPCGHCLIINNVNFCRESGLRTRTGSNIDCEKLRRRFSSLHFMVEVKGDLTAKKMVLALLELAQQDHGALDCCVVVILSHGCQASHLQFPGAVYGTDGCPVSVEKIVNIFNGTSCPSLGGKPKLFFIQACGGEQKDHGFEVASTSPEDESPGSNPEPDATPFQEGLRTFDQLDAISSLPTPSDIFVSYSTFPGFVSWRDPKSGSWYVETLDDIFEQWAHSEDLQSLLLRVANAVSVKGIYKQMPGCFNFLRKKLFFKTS

As for “GST-BmIAP (recombinant purified Bombyx mori inhibitor of apoptosis protein, glutathione S-transferase fusion)”, the caspase-9 activity: AFC release from Ac-LEHD-AFC (100 uM); 0.2 uM caspase-9, 0.2-1.6 uM BmIAP, 37 C (fold molar excess) came out at 8.
